Reference: patent publication US7524503B2, “Human cytomegalovirus (HCMV) cytotoxic T cell epitopes, polyepitopes compositions comprising same and diagnostic and prophylactic and therapeutic uses therefor” (priority 2001, dated 2009)

Tests used:
HLA A2 = target: T1, HLA A2 (Homo sapiens, UniProt P04439, D140Y/D185E/D98H/E176V/E277Q/G131W/G231S/I119V/I121R/I166T/I218V/L300P/L318F/N151K/N90K/P208A/P217A/Q86G/Q94H/R138H/R169H/T345S); type: cell-based; settings: HLA A2 on T2 cells; relative increase in HLA expression vs no peptide at 26° C.
T1 construct: endogenous in cells; host or cells: T2 cells

[1] = test system: PBMC from healthy HCMV seropositive donors; assay: IFN-γ ELISPOT assay; type: cell-based, human; settings: for ELISPOT Responses (SFC/10^6 PBMC): peptide 10 μg/ml
Procedure: ELISPOT assay was used to assess whether stimulation of PBMC from a large panel of seropositive donors with HCMV peptides could induce IFN-γ expression in T cells. Briefly, a 96-well nitrocellulose plate (Multiscreen, Millipore) was coated overnight at 4° C. with mouse monoclonal antibody anti-IFN-γ IgG1 (10 μg/ml; Mabtech Nacka, Sweden). The plate was then washed six times in Phosphate Buffered Saline (PBS) and blocked for 1 hour at 37° C. with PBS supplemented with 5% FCS. The blocking solution was removed and PBMC from healthy HCMV seropositive donors were added at a concentration of 2.5×10^5 cells per well in growth medium. These cells were incubated for 18 h at 37° C. in a 5% CO2 atmosphere in the presence of synthetic peptides from HCMV antigens (10 μg/ml). After incubation, the plate was washed three times with PBS supplemented with 0.05% Tween, followed by three washes with PBS alone. Biotinylated anti-IFN-γ (Mabtech, Nacka Sweden) detection antibody was added to each well at a final concentration of 1 μg/ml in PBS. The plates were incubated at room temperature in the dark for 4 h and then washed, as described above. Streptavidin-Alkaline phosphatase (Sigma) was added to each well at a final concentration of 1 μg/ml in PBS and incubated at room temperature in the dark for 2 h. After a final wash with PBS, the substrate, 5-bromo-4-chloro-3-indolyl phosphate and nitro blue tetrazolium, was added to each well and the plates incubated for 30 min at RT. Cells that produced IFN-γ in response to the presence of peptide were detected as purple spots on the nitrocellulose membrane of each well. The spots were counted automatically using a closed-circuit camera (CCD) and ImagePro image analysis software or automated ELISPOT reader (AID, Germany). The T cell precursor frequency for each peptide was based on the total number of PBMC in the well and the number of peptide-specific spots per well, over an average of 3 wells. The number of peptide-specific spots was also calculated by subtracting the negative control values, which consisted of PBMC without peptide (an average of 3 wells), from the test wells.
To determine whether memory CTL responses against the predictive HCMV potential epitopes could be detected in healthy seropositive virus carriers, we used the ELISPOT assay, which allows rapid identification of CTL epitopes without prolonged in vitro culture.
We tested epitopes that were restricted for HLA A1, A3, A24, A26, B7, B8, B27, B35 and B44 in ELISPOT assays, to determine whether memory T cell responses could be detected in healthy HLA-matched virus carriers. PBMC from a cohort of healthy virus carriers (Table 2) were stimulated with individual peptides and the cells that produced IFN-γ were detected. CTL epitopes that were restricted through either HLA A1, A3, A24, A26, B7, B8 or B27, were identified.
Thus, a total of 450 peptides were produced. ELISPOT assays were used to determine whether ex vivo memory T cell responses could be detected in a cohort of 14 healthy virus carriers (Table 2). PBMC were stimulated with individual peptides and the cells that produced IFN-γ were detected.

Sequence | MSE (MHC stabilization efficiency) (HLA A2) | further results
ALVNAVNKL (human cytomegalovirus pp150 CTL epitope peptide) | ++ (++ = 100-199%) | ELISPOT Responses (SFC/10^6 PBMC) ([1]; donor ten): WS(60) SFC/10^6 PBMC
LLVLFIVYV (human cytomegalovirus US2 CTL epitope peptide) | − (− = 0-50%) | ELISPOT Responses (SFC/10^6 PBMC) ([1]; donor ten): WS(92) SFC/10^6 PBMC
LMLLKNGTV (human cytomegalovirus gH CTL epitope peptide) | − (− = 0-50%) | ELISPOT Responses (SFC/10^6 PBMC) ([1]; donor seventeen): CJ(80) SFC/10^6 PBMC
YLFSLVVLV (human cytomegalovirus US3 CTL epitope peptide) | + (+ = 51-99%) | ELISPOT Responses (SFC/10^6 PBMC) ([1]; donor ten): WS(73) SFC/10^6 PBMC
ALVNFLRHL (human cytomegalovirus pp150 CTL epitope peptide) | ++ (++ = 100-199%) | ELISPOT Responses (SFC/10^6 PBMC) ([1]; donor ten): WS(57) SFC/10^6 PBMC
SLLSEFCRV (human cytomegalovirus IE1 CTL epitope peptide) | +++ (+++ = 200-300%) | ELISPOT Responses (SFC/10^6 PBMC) ([1]; donor ten): WS(471) SFC/10^6 PBMC
LIEDFDIYV (human cytomegalovirus pp150 CTL epitope peptide) | ++ (++ = 100-199%) | ELISPOT Responses (SFC/10^6 PBMC) ([1]; donor ten): WS(88) SFC/10^6 PBMC
RLLQTGIHV [reference compound] | ++ (++ = 100-199%) | ELISPOT Responses (SFC/10^6 PBMC) ([1]; donor thirteen): BS(57) SFC/10^6 PBMC
YLMDELRYV (human cytomegalovirus gH CTL epitope peptide) | ++ (++ = 100-199%) | 
PLREYLADL (human cytomegalovirus pp28 CTL epitope peptide) | − (− = 0-50%) | 
LLGALNLCL (human cytomegalovirus IE2 CTL epitope peptide) | ++ (++ = 100-199%) | 
RIWCLVVCV (human cytomegalovirus gB CTL epitope peptide) | − (− = 0-50%) | ELISPOT Responses (SFC/10^6 PBMC) ([1]; donor fifteen): 105 SFC/10^6 PBMC; ELISPOT Responses (SFC/10^6 PBMC) ([1]; donor one): 108 SFC/10^6 PBMC
YLLYRMLKT (human cytomegalovirus gH CTL epitope peptide) | − (− = 0-50%) | 
TMYGGISLL (human cytomegalovirus IE1 CTL epitope peptide) | ++ (++ = 100-199%) | 
ILFDGHDLL (human cytomegalovirus gH CTL epitope peptide) | +++ (+++ = 200-300%) | 
FLMEHTMPV (human cytomegalovirus IE2 CTL epitope peptide) | ++ (++ = 100-199%) | ELISPOT Responses (SFC/10^6 PBMC) ([1]; donor ten): WS(137) SFC/10^6 PBMC
YILEETSVM (human cytomegalovirus IE1 CTL epitope peptide) [reference compound] | ++ (++ = 100-199%) | ELISPOT Responses (SFC/10^6 PBMC) ([1]; donor seven): SB(764) SFC/10^6 PBMC
QMWQARLTV | + (+ = 51-99%) | 
LLSEFCRVL (human cytomegalovirus IE1 CTL epitope peptide) | ++ (++ = 100-199%) | 
MLNIPSINV [reference compound] | ++ (++ = 100-199%) | ELISPOT Responses (SFC/10^6 PBMC) ([1]; donor one): 178 SFC/10^6 PBMC; ELISPOT Responses (SFC/10^6 PBMC) ([1]; donor seven): 65 SFC/10^6 PBMC
LMNGQQIFL | ++ (++ = 100-199%) | ELISPOT Responses (SFC/10^6 PBMC) ([1]; donor fifteen): 217 SFC/10^6 PBMC; ELISPOT Responses (SFC/10^6 PBMC) ([1]; donor ten): 751 SFC/10^6 PBMC
LMQKFPKQV (human cytomegalovirus IE2 CTL epitope peptide) | + (+ = 51-99%) | 
DLVPLTVSV (human cytomegalovirus pp71 CTL epitope peptide) | + (+ = 51-99%) | 

Sequence | MSE (MHC stabilization efficiency) (HLA A2) | further results
QLRSVIRAL (human cytomegalovirus pp50 CTL epitope peptide) | − (− = 0-50%) | 
NLFPYLVSA (human cytomegalovirus gB CTL epitope peptide) | ++ (++ = 100-199%) | 
YINRALAQI (human cytomegalovirus gB CTL epitope peptide) | ++ (++ = 100-199%) | 
LIFGHLPRV (human cytomegalovirus gH CTL epitope peptide) | ++ (++ = 100-199%) | ELISPOT Responses (SFC/10^6 PBMC) ([1]; donor delta): SE(84) SFC/10^6 PBMC
LLNCAVTKL (human cytomegalovirus pp50 CTL epitope peptide) | ++ (++ = 100-199%) | ELISPOT Responses (SFC/10^6 PBMC) ([1]; donor delta): SE(59) SFC/10^6 PBMC
PLIPTTAVI (human cytomegalovirus pp150 CTL epitope peptide) | − (− = 0-50%) | 
LLIPKSFTL (human cytomegalovirus pp71 CTL epitope peptide) | − (− = 0-50%) | 
LLIDPTSGL (human cytomegalovirus pp28 CTL epitope peptide) | + (+ = 51-99%) | ELISPOT Responses (SFC/10^6 PBMC) ([1]; donor beta): 77 SFC/10^6 PBMC; ELISPOT Responses (SFC/10^6 PBMC) ([1]; donor seven): 270 SFC/10^6 PBMC
LLMMSVYAL (human cytomegalovirus gH CTL epitope peptide) | ++ (++ = 100-199%) | 
KMSVRETLV (human cytomegalovirus pp150 CTL epitope peptide) | ++ (++ = 100-199%) | ELISPOT Responses (SFC/10^6 PBMC) ([1]; donor delta): SE(69) SFC/10^6 PBMC
SAIIGIYLL (human cytomegalovirus gH CTL epitope peptide) | − (− = 0-50%) | 
TLLVLFIVYV (human cytomegalovirus US2 CTL epitope peptide) | − (− = 0-50%) | ELISPOT Responses (SFC/10^6 PBMC) ([1]; donor delta): SE(46) SFC/10^6 PBMC
VIGDQYVKV [reference compound] | ++ (++ = 100-199%) | 
QLLIPKSFTL (human cytomegalovirus pp71 CTL epitope peptide) | − (− = 0-50%) | 
TMWCLTLFV (human cytomegalovirus UL18 CTL epitope peptide) | ++ (++ = 100-199%) | 
TLVIPSWHV (human cytomegalovirus pp71 CTL epitope peptide) | ++ (++ = 100-199%) | 
LLVEPCARV (human cytomegalovirus pp28 CTL epitope peptide) | ++ (++ = 100-199%) | 
CLQNALDIL (human cytomegalovirus IE1 CTL epitope peptide) | ++ (++ = 100-199%) | ELISPOT Responses (SFC/10^6 PBMC) ([1]; donor delta): SE(490) SFC/10^6 PBMC
TLTEDFFVV (human cytomegalovirus gH CTL epitope peptide) | ++ (++ = 100-199%) | 
ILARNLVPM | ++ (++ = 100-199%) | ELISPOT Responses (SFC/10^6 PBMC) ([1]; donor delta): SE(170) SFC/10^6 PBMC
RIFAELEGV [reference compound] | ++ (++ = 100-199%) | donors recognizing the epitope in ELISPOT ([1]; cohort of eight HLA A2-positive healthy seropositive donors): 5 of the 8; ELISPOT Responses (SFC/10^6 PBMC) ([1]; donor fifteen): CP(275) SFC/10^6 PBMC; ELISPOT Responses (SFC/10^6 PBMC) ([1]; donor six): 170 SFC/10^6 PBMC; ELISPOT Responses (SFC/10^6 PBMC) ([1]; donor ten): 236 SFC/10^6 PBMC
LLFRTLLVYL (human cytomegalovirus US3 CTL epitope peptide) | +++ (+++ = 200-300%) | ELISPOT Responses (SFC/10^6 PBMC) ([1]; donor seven): 76 SFC/10^6 PBMC; ELISPOT Responses (SFC/10^6 PBMC) ([1]; donor ten): 77 SFC/10^6 PBMC
